{"source": "patent US20250066503A1", "about": "“CELL INJURY INDUCING THERAPEUTIC DRUG FOR USE IN CANCER THERAPY” (CHUGAI SEIYAKU KABUSHIKI KAISHA, priority 2016, published 2025)", "key": {"[1]": {"details": "systemic administration; non-small-cell lung cancer patients; Phase I; cited from earlier work"}, "PC-10 xenograft tumor": {"system": "PC-10 xenograft tumor", "assay": "In vivo drug efficacy, NOD scid/T cell-injected model, PC-10", "parameters": "species or system NOD scid mice", "details": "1 mg/kg once through the tail vein, compared to the vehicle-administered group", "procedure": "Methods called an NOD scid/T cell-injected model, a humanized NOG mouse model, and a human CD3εδγ gene-modified mouse model were used in the in vivo drug efficacy evaluation. Assay using an NOD scid/T cell-injected model was performed as follows. […] T cells expanded by culturing human PBMCs in vitro were injected into the NOD scid mice with confirmed tumor establishment. The mice were treated by administering bispecific antibody-38 and bispecific antibody-30, -31, -32, or -33. Assay using a humanized NOG mouse model was performed as follows. CD34-positive hematopoietic stem cells derived from umbilical cord blood were transplanted into NOG mice by tail vein injection. Human T cells are constantly supplied in the mice, which are called humanized NOG mice. The PC-10 cell line was transplanted into humanized NOG mice. The humanized NOG mice with confirmed establishment of PC-10 tumor were treated by administering antibody-38. Assay using a human CD3εδγ gene-modified mouse model was performed as follows. Cells of mouse-derived cell line forced to express human GPC3 were transplanted into a human CD3εδγ gene-modified mouse model, which had been prepared according to Reference Example 10. The human CD3εδγ gene-modified mice with confirmed tumor establishment were treated by administering antibody-38. […]"}, "[2]": {"system": "NCI-H446 human cancer cell line", "assay": "Cytotoxic activity (cell proliferation inhibition rate, xCELLigence) with human PBMCs", "assay_type": "cell-based", "details": "human PBMCs as effector cells; NCI-H446 target cells; 72 hours", "procedure": "Using a syringe preloaded with 100 μL of 1,000 units/mL heparin solution (Novo Heparin for injection, 5000 units, Novo Nordisk), 50 mL of peripheral blood was collected from each healthy volunteer (adult individual). This peripheral blood was diluted two-fold in PBS(−), divided into four aliquots, and added into a Leucosep tube for lymphocyte separation (Cat. No. 227290, Greiner Bio-One) that had been loaded with 15 mL of Ficoll-Paque PLUS and subjected to centrifugation in advance. This separation tube was centrifuged (at 2150 rpm for ten minutes at room temperature), and then the mononuclear cell fraction was collected. The cells in the mononuclear cell fraction were washed once with the Dulbecco's Modified Eagle's Medium containing 10% FBS (manufactured by SIGMA, hereinafter referred to as 10% FBS/D-MEM), and then prepared to have a cell density of 4×10^6 cells/mL using 10% FBS/D-MEM. The cell suspension prepared this way was used as the human PBMC solution in the experiment below.\nCytotoxic activity was assessed by the rate of cell proliferation inhibition using the xCELLigence Real-Time Cell Analyzer (Roche Diagnostics). […]\nCytotoxic activity was measured by the method described in Reference Example 1-3-2.\nCDR and FR were determined according to the Kabat definition (Kabat numbering). […]"}}, "note": "Entries after “also recorded” stand apart in the source; their conditions may differ.", "data": [{"molecule": "catumaxomab", "values": [{"measurement": "maximum tolerable dose", "setting": "[1]", "value": 5, "unit": "g/body"}]}, {"molecule": "antibody-39: bispecific antibody; CD3-binding variable region SEQ ID NO: 433, GPC-binding SEQ ID NO: 434, common L chain SEQ ID NO: 435 (antibody, An artificially generated sequence) heavy 1: QVQLVQSGAEVKKPGASVKVSCKASGYTFTDYEMHWIRQPPGQGLEWIGAIDPKTGDTAYSQKFKGRVTLTADKSTSTAYMELSSLTSEDTAVYYCTRFYSYTYWGQGTLVTVSS heavy 2: EVQLVETGGSLVQPGKSLKLTCATSGFTFSNAWMHWVRQSPEKQLEWVAQIKAKSNNYATYYAESVKGRFTISRDDSKSNIYLQMNSLKEEDTAVYYCRYVHYGAYYGVDAWGQGTSVTVSS light: DIVMTQSPLSLPVTPGEPASISCRSSQSLVHSNRNTYLHWYQQKPGQAPRLLIYKVSNRFSGVPDRFSGSGSGTDFTLKISRVEAEDVGVYYCGQGTQVPYTFGQGTKLEIK", "values": [{"measurement": "anti-tumor effect", "setting": "PC-10 xenograft tumor", "value": "evident anti-tumor effect"}]}, {"molecule": "GPC3_ERY27_hCE115: humanized anti-human CD3ε chain and anti-human GPC3 bispecific antibody (SEQ ID NOs: 54, 55, and 56) (protein, An artificially generated sequence) chain 1: QVQLVQSGAEVKKPGASVKVSCKASGYTFTDYEMHWIRQPPGQGLEWIGAIDPKTGDTAYSQKFKGRVTLTADKSTSTAYMELSSLTSEDTAVYYCTRFYSYTYWGQGTLVTVSSASTKGPSVFPLAPCSRSTSESTAALGCLVKDYFPEPVTVSWNSGALTSGVHTFPAVLQSSGLYSLSSVVTVPSSSLGTKTYTCNVDHKPSNTKVDKRVESKYGPPCPPCPAPEFRGGPKVFLFPPKPKDTLMISRTPEVTCVVVDVSQEDPEVQFNWYVDGVEVHNAKTKPREEQFASTYRVVSVLTVLHQDWLNGKEYKCKVSNKGLPSSIEKTISKAKGQPREPQVYTLPPSQKEMTKNQVSLTCLVKGFYPSDIAVEWESNGQPENNYKTTPPVLDSDGSFFLYSRLTVDKSRWQEGNVFSCSVMHEALHNRYTQKSLSLSLHHHHHHHH chain 2: QVQLVESGGGVVQPGRSLRLSCAASGFTFSNAWMHWVRQAPGKGLEWVAQIKAKSNNYATYYAESVKGRFTISRDDSKNSLYLQMNSLKTEDTAVYYCRYVHYGAYYGVDAWGQGTTVTVSSASTKGPSVFPLAPCSRSTSESTAALGCLVKDYFPEPVTVSWNSGALTSGVHTFPAVLQSSGLYSLSSVVTVPSSSLGTKTYTCNVDHKPSNTKVDKRVESKYGPPCPPCPAPEFRGGPKVFLFPPKPKDTLMISRTPEVTCVVVDVSQEDPEVQFNWYVDGVEVHNAKTKPREEQFASTYRVVSVLTVLHQDWLNGKEYKCKVSNKGLPSSIEKTISKAKGQPREPQVYTLPPSQEEMTKNQVSLTCLVKGFYPSDIAVEWESNGQPENNYKTTPPVLDSDGSFFLYSRLTVDKSRWQEGNVFSCSVMHEALHNHYTQESLSLSLDYKDDDDK chain 3: DIVMTQSPLSLPVTPGEPASISCRSSQSLVHSNRNTYLHWYQQKPGQAPRLLIYKVSNRFSGVPDRFSGSGSGTDFTLKISRVEAEDVGVYYCGQGTQVPYTFGQGTKLEIKRTVAAPSVFIFPPSDEQLKSGTASVVCLLNNFYPREAKVQWKVDNALQSGNSQESVTEQDSKDSTYSLSSTLTLSKADYEKHKVYACEVTHQGLSSPVTKSFNRGEC", "values": [{"measurement": "cytotoxic activity (T-cell-dependent cellular cytotoxicity)", "setting": "[2]", "value": "reduction of the activity; also recorded: lower"}]}]}
